Results on one molecule are retold here after patent US20070020269A1 (published 2007).

Test [1] deals with T1, p21-C (UniProt P38936 91-164).
T1 construct: not shown: myc-tag from pcDNA3 vector
Put plainly: co-immunoprecipitation (anti-myc IP, anti-flag blot), co-transfected 293T cells. From the text:
(§1) In order to determine the interacting regions of RX50 and p21, the 293T cells were co-transfected with RX50 and p21, RX50 and p21-D1, RX50 and p21-D2, RX50 and p21-D3, RX50 and p21-C, RX50 and p21-N, respectively. The transfected cells were allowed to grow 24 hrs before lysis. The supernatant was collected by centrifugation. The […] were subjected to immunoprecipitation with anti-myc antibody and Protein G. The product of co-immunoprecipitation was electrophoresised on SDS-PAGE, transferred onto a nitro cellulose membrane, and then subjected to immunoblot with a enzyme-labeled anti-flag antibody. […] It was inferred that the region of p21 interacting with RX50 was located between amino acid residue 40 to 60 of p21.

For test [2], the target named is T2, p21-D3 (UniProt P38936 60-164).
T2 construct: not shown: myc-tag from pcDNA3 vector
The description is as above.
Description: as §1

T1 sequence (P38936 91-164): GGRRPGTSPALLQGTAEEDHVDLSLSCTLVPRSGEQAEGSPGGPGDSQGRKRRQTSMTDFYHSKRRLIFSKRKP
T2 sequence (P38936 60-164): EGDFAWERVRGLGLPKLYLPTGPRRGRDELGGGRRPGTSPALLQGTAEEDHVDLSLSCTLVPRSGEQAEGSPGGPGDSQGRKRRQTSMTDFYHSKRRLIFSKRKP

B1: Flag-RX50 (enzyme)
chain: MHGYFGCNAAAEPGYSAFVGTPQICVTKFSTRNCQGMDSVIKPLDTIPEDKKVRVQRTQSTFDPFEKPANQVKRVHSENNACINFKTSSTGKESPKVRRHSSPSSPTSPKFGKADSYEKLEKLGEGSYAYVYKGKSKVNGKLVALKVIRLQEEEGTPFTAIREASIIKGLKHANIVLLHDIIHTKETLTLVFEYYHTDLCQYMDKHPGGLHPDNVKLFLFQLLRGLSYIHQRYILHRDLKPGNLLISDTGELKLADFGLAKAKSVPSHTTSNEVVYLWYRPPDVLLGSTEYSTCLDMWGVGCIFVEMIQGVAAFPGMKDIQDQLERIFLVLGTPNEDTWPGVHSLPHFKPERFTLYSSKNLRQAWNKLSYVNHAEDLASKLLQCSPKNRLSAQAALSHEYFSDLPPRLWELTDMSSIFTVPNVRLQPEAGESMRAFGKNNSYGKSLSNSKH
notes: Expressed in transfected 293T cells; also called RX50 protein; not shown: N-terminal flag-tag from modified pcDNA3.1
As for B1, the binding result in test [1] and in test [2] was “no binding” each time.
